Laboratory results: patent publication US9259432

Target: S100B protein
Test: tryptophan fluorescence quenching, S100B titrated into 5.0 µM peptide, 0.1 mM CaCl2, 12° C.

Chain of S100B protein (P02638 2-92): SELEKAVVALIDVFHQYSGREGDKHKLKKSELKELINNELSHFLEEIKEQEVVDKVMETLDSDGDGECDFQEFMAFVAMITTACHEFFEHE

**Q.** TRTK12 peptide was tested. Which Kd did it give?
**A.** 211 nM
